Experiments:
[1] = test system: Ac-Thr-Ile-Nle-Nle-Gln-Arg-NH2 (SEQ ID NO 1)
[2] = test system: 2-aminobenzoyl-Thr-Ile-Nle-Phe(p-NO2)-Gln-Arg-NH2 (SEQ. ID NO. 4)

Substance | cleavage of the peptide substrate (reverse phase HPLC; products identified by ion spray mass spectrometry) [1] | fluorogenic assay (fluorescence against time of incubation) [2]
[(NHCH2COSCH2CO)^51-52 Aba^67,95] HIV-1 PR | The peptide products were identified by ion spray mass spectrometry as (H)-Nle-Gln-Arg. NH2 (early eluting) and Ac-Thr-Ile-Nle-(OH) (late eluting) | showed identical activities
{Aba^67,95,167,195} HIV-1 PR | – | showed identical activities
